From article PMC11643744, “New Conjugates of Vancomycin with Cell-Penetrating Peptides—Synthesis, Antimicrobial Activity, Cytotoxicity, and BBB Permeability Studies” (Molecules, 2024)
Peptide text beside a SMILES is read from it. * marks the point of attachment. Propioloyl = C#CC(=O)*

Columns and labels:
[1] = system: normal human fibroblasts, BJ line (CRL-2522); test: Neutral red cytotoxicity assay
Description: Normal human fibroblasts, BJ line (CRL-2522™), Eagle’s Minimum Essential Medium (EMEM), and fetal bovine serum (FBS) were obtained from ATCC (Manassas, VA, USA). Cells were grown following ATCC guidelines in an EMEM medium supplemented with 10% FBS at 37 °C in a humidified atmosphere of 95% air and 5% CO2 in a HeraCell 150 incubator (Heraeus, Hanau, Germany).
The assay was performed as per previously published protocols with slight modifications. In brief, BJ cells were plated in 96-well tissue culture plates (Nest Scientific Biotechnology, Wuxi, China) at a density of 6 × 10^3 cells per well and allowed to attach for 24 h in EMEM supplemented with 10% FBS. After the incubation period, the medium was removed, and 10% dimethyl sulfoxide (DMSO)-treated cells (Sigma-Aldrich, St. Louis, MO, USA) were used as a positive control, while nontreated cells served as a negative control.
The cells were treated with peptides suspended in EMEM medium supplemented with 10% FBS and incubated for 24 h at 37 °C in a humidified atmosphere of 95% air and 5% CO2. After the incubation, the supernatants were discarded and replaced with 100 µL of non-supplemented EMEM containing 0.33% neutral red (Sigma-Aldrich) diluted 1:40. The cells were incubated for an additional 2 h at 37 °C. Following incubation, the neutral red medium was removed, and the cells were washed with 100 µL of phosphate-buffered saline (PBS) per well.
To extract the dye into the solution, the cells were treated with 150 µL of a solution containing 50% ethanol (Alchem, Torun, Poland), 49% distilled H2O, and 1% acetic acid (Alchem, Torun, Poland) and incubated under shaking at 37 °C for 10 min. Absorbance was measured at 540 nm using a Synergy H1 plate reader (BioTek Instruments, Winooski, VT, USA). The assay was performed in triplicate to ensure reproducibility.

[2] = in vitro
Text: This assay utilized a 96-well plate assembly consisting of a filter plate pre-coated with polar brain lipids (donor plate) and a receiver plate (acceptor plate). The phospholipid mixture used to coat the membrane was extracted from porcine polar brain lipids, with the following composition: 12.6% phosphatidylcholine, 33.1% phosphatidylethanolamine, 18.5% phosphatidylserine, 4.1% phosphatidylinositol, 0.8% phosphatidic acid, and 30.9% of other compounds, including cerebrosides, sulfatides, and pigments.
In each well of the donor filtration plate (Multiscreen Filter Plate, PVDF with a pore size of 0.45 µm), 5 µL of the phospholipid mixture in n-dodecane (20 mg/mL) was carefully applied to form the artificial membrane. After coating, 200 µL of phosphate-buffered saline (PBS at pH 7.4) containing 5% dimethyl sulfoxide (DMSO) as a co-solvent, and the test compound (at a concentration of 20 µM) was added to each well of the donor plate (in triplicate). […] The plate lid was then replaced and the resulting assembled donor–acceptor plates were incubated at room temperature for 20 h. After this time, the donor plate was removed and solutions from each well of both acceptor and donor plates were collected for further analysis. The concentrations of the tested compounds were determined by LC-MS. The analysis was conducted by UHPLC-MS system (Shimadzu Nexera X2 with LCMS-2020 detector) using a ReproSil Pure 120 ODS-3 column (Dr. Maisch GmbH, 100 × 2 mm, 2.4 µm particle size) with several gradients of ACN with 0.1% FA and 0.05% TFA at a flow rate of 0.3 mL/min. The eluted solution was monitored by an ESI-MS detector operated in a selected ion monitoring mode (SIM). […] CE=CD×VD+CA×VA/VD+VA

Row | SMILES | R, mass retention ([2]; 20 h incubation, mean ± SEM) [%] | other results
1 | C[S+](C)[O-] [DMSO, dimethyl sulfoxide, reference compound] | – | cell viability [1]: approximately 21%
2 | O=C(O)Cc1ccccc1Nc1c(Cl)cccc1Cl [Diclofenac, reference compound] | – | R, mass retention ([2]; PAMPA, 20 h, 20 µM, pH 7.4): 12.0 ± 3.3%; Papp at 20 h, 20 µM ([2]; PAMPA, pH 7.4): 3.44 ± 0.1 ×10⁻⁶ cm/s
3 | CC[C@H](C)[C@H](NC(=O)[C@H](CCCCN)NC(=O)[C@H](CCCCN)NC(=O)[C@H](C)NC(=O)[C@H](CC(C)C)NC(=O)[C@H](C)NC(=O)[C@H](C)NC(=O)[C@H](CC(C)C)NC(=O)[C@H](C)NC(=O)[C@H](CCCCN)NC(=O)[C@H](CC(C)C)NC(=O)[C@H](CC(N)=O)NC(=O)[C@@H](NC(=O)[C@H](CCCCN)NC(=O)CNC(=O)[C@H](CC(C)C)NC(=O)[C@H](CC(C)C)NC(=O)[C@H](Cc1ccc(O)cc1)NC(=O)CNC(=O)[C@H](C)NC(=O)c1cn(CCOCCOCCOCCNC(=O)[C@H]2NC(=O)[C@H]3NC(=O)[C@H](NC(=O)[C@@H]4NC(=O)[C@H](CC(N)=O)NC(=O)[C@H](NC(=O)[C@@H](CC(C)C)NC)[C@H](O)c5ccc(c(Cl)c5)Oc5cc4cc(c5O[C@@H]4O[C@H](CO)[C@@H](O)[C@H](O)[C@H]4O[C@H]4C[C@](C)(N)[C@H](O)[C@H](C)O4)Oc4ccc(cc4Cl)[C@H]3O)c3ccc(O)c(c3)-c3c(O)cc(O)cc32)nn1)[C@@H](C)CC)C(=O)N[C@@H](CC(C)C)C(N)=O [compound 2] | 10.0 ± 0.6 | concentration above which cytotoxicity was shown ([1]; 24 h): above 64 µg/mL; Papp at 20 h, 20 µM ([2]; pig, PAMPA, pH 7.4, Pe, effective permeability coefficient, 20 h incubation, 20 µM, pH 7.4, mean ± SEM): 0.187 ×10⁻⁶ cm/s
4 | CN[C@H](CC(C)C)C(=O)N[C@H]1C(=O)N[C@@H](CC(N)=O)C(=O)N[C@H]2C(=O)N[C@H]3C(=O)N[C@H](C(=O)N[C@H](C(=O)NCCOCCOCCOCCn4cc(C(=O)N[C@@H](Cc5ccc(O)cc5)C(=O)NCC(=O)N[C@@H](CCCNC(=N)N)C(=O)N[C@@H](CCCCN)C(=O)N[C@@H](CCCCN)C(=O)N[C@@H](CCCNC(=N)N)C(=O)N[C@@H](CCCNC(=N)N)C(=O)N[C@@H](CCC(N)=O)C(=O)N[C@@H](CCCNC(=N)N)C(=O)N[C@@H](CCCNC(=N)N)C(=O)N[C@@H](CCCNC(=N)N)C(N)=O)nn4)c4cc(O)cc(O)c4-c4cc3ccc4O)[C@H](O)c3ccc(c(Cl)c3)Oc3cc2cc(c3O[C@@H]2O[C@H](CO)[C@@H](O)[C@H](O)[C@H]2O[C@H]2C[C@](C)(N)[C@H](O)[C@H](C)O2)Oc2ccc(cc2Cl)[C@H]1O [compound 5] | 8.7 ± 3.8 | –
5 | CN[C@H](CC(C)C)C(=O)N[C@H]1C(=O)N[C@@H](CC(N)=O)C(=O)N[C@H]2C(=O)N[C@H]3C(=O)N[C@H](C(=O)N[C@H](C(=O)O)c4cc(O)cc(O)c4-c4cc3ccc4O)[C@H](O)c3ccc(c(Cl)c3)Oc3cc2cc(c3O[C@@H]2O[C@H](CO)[C@@H](O)[C@H](O)[C@H]2O[C@H]2C[C@](C)(NC(=O)CCOCCOCCOCCOCCn3cc(C(=O)N[C@@H](Cc4ccc(O)cc4)C(=O)NCC(=O)N[C@@H](CCCNC(=N)N)C(=O)N[C@@H](CCCCN)C(=O)N[C@@H](CCCCN)C(=O)N[C@@H](CCCNC(=N)N)C(=O)N[C@@H](CCCNC(=N)N)C(=O)N[C@@H](CCC(N)=O)C(=O)N[C@@H](CCCNC(=N)N)C(=O)N[C@@H](CCCNC(=N)N)C(=O)N[C@@H](CCCNC(=N)N)C(N)=O)nn3)[C@H](O)[C@H](C)O2)Oc2ccc(cc2Cl)[C@H]1O [compound 6] | 77.7 ± 0.3 | –
6 | CN[C@H](CC(C)C)C(=O)N[C@H]1C(=O)N[C@@H](CC(N)=O)C(=O)N[C@H]2C(=O)N[C@H]3C(=O)N[C@H](C(=O)N[C@H](C(=O)NCCSSCCn4cc(C(=O)N[C@@H](Cc5ccc(O)cc5)C(=O)NCC(=O)N[C@@H](CCCNC(=N)N)C(=O)N[C@@H](CCCCN)C(=O)N[C@@H](CCCCN)C(=O)N[C@@H](CCCNC(=N)N)C(=O)N[C@@H](CCCNC(=N)N)C(=O)N[C@@H](CCC(N)=O)C(=O)N[C@@H](CCCNC(=N)N)C(=O)N[C@@H](CCCNC(=N)N)C(=O)N[C@@H](CCCNC(=N)N)C(N)=O)nn4)c4cc(O)cc(O)c4-c4cc3ccc4O)[C@H](O)c3ccc(c(Cl)c3)Oc3cc2cc(c3O[C@@H]2O[C@H](CO)[C@@H](O)[C@H](O)[C@H]2O[C@H]2C[C@](C)(N)[C@H](O)[C@H](C)O2)Oc2ccc(cc2Cl)[C@H]1O [compound 7] | 23.8 ± 4.9 | –
7 | CN[C@H](CC(C)C)C(=O)N[C@H]1C(=O)N[C@@H](CC(N)=O)C(=O)N[C@H]2C(=O)N[C@H]3C(=O)N[C@H](C(=O)N[C@H](C(=O)O)c4cc(O)cc(O)c4-c4cc3ccc4O)[C@H](O)c3ccc(c(Cl)c3)Oc3cc2cc(c3O[C@@H]2O[C@H](CO)[C@@H](O)[C@H](O)[C@H]2O[C@H]2C[C@](C)(NC(=O)CCC(=O)NCCSSCCn3cc(C(=O)N[C@@H](Cc4ccc(O)cc4)C(=O)NCC(=O)N[C@@H](CCCNC(=N)N)C(=O)N[C@@H](CCCCN)C(=O)N[C@@H](CCCCN)C(=O)N[C@@H](CCCNC(=N)N)C(=O)N[C@@H](CCCNC(=N)N)C(=O)N[C@@H](CCC(N)=O)C(=O)N[C@@H](CCCNC(=N)N)C(=O)N[C@@H](CCCNC(=N)N)C(=O)N[C@@H](CCCNC(=N)N)C(N)=O)nn3)[C@H](O)[C@H](C)O2)Oc2ccc(cc2Cl)[C@H]1O [compound 8] | 31.5 ± 1.5 | –
8 | C#CC(=O)N[C@@H](Cc1ccc(O)cc1)C(=O)N[C@@H](C)C(=O)N[C@@H](CCCNC(=N)N)C(=O)N[C@@H](C)C(=O)N[C@@H](C)C(=O)N[C@@H](C)C(=O)N[C@@H](CCCNC(=N)N)C(=O)N[C@@H](CCC(N)=O)C(=O)N[C@@H](C)C(=O)N[C@@H](CCCNC(=N)N)C(=O)N[C@@H](C)C(N)=O [compound 9] (Propioloyl-YARAAARQARA-NH2) | 6.7 ± 1.5 | –
9 | CN[C@H](CC(C)C)C(=O)N[C@H]1C(=O)N[C@@H](CC(N)=O)C(=O)N[C@H]2C(=O)N[C@H]3C(=O)N[C@H](C(=O)N[C@H](C(=O)NCCOCCOCCOCCn4cc(C(=O)N[C@@H](CCCNC(=N)N)C(=O)N[C@@H](CCCNC(=N)N)C(=O)N[C@@H](CCCNC(=N)N)C(=O)N[C@@H](CCCNC(=N)N)C(=O)N[C@@H](CCCNC(=N)N)C(=O)N[C@@H](CCCNC(=N)N)C(=O)N[C@@H](CCCNC(=N)N)C(=O)N[C@@H](CCCNC(=N)N)C(=O)N[C@@H](CCCNC(=N)N)C(N)=O)nn4)c4cc(O)cc(O)c4-c4cc3ccc4O)[C@H](O)c3ccc(c(Cl)c3)Oc3cc2cc(c3O[C@@H]2O[C@H](CO)[C@@H](O)[C@H](O)[C@H]2O[C@H]2C[C@](C)(N)[C@H](O)[C@H](C)O2)Oc2ccc(cc2Cl)[C@H]1O [compound 15] | 2.7 ± 0.9 | –
10 | CN[C@H](CC(C)C)C(=O)N[C@H]1C(=O)N[C@@H](CC(N)=O)C(=O)N[C@H]2C(=O)N[C@H]3C(=O)N[C@H](C(=O)N[C@H](C(=O)O)c4cc(O)cc(O)c4-c4cc3ccc4O)[C@H](O)c3ccc(c(Cl)c3)Oc3cc2cc(c3O[C@@H]2O[C@H](CO)[C@@H](O)[C@H](O)[C@H]2O[C@H]2C[C@](C)(NC(=O)CCOCCOCCOCCOCCn3cc(C(=O)N[C@@H](CCCNC(=N)N)C(=O)N[C@@H](CCCNC(=N)N)C(=O)N[C@@H](CCCNC(=N)N)C(=O)N[C@@H](CCCNC(=N)N)C(=O)N[C@@H](CCCNC(=N)N)C(=O)N[C@@H](CCCNC(=N)N)C(=O)N[C@@H](CCCNC(=N)N)C(=O)N[C@@H](CCCNC(=N)N)C(=O)N[C@@H](CCCNC(=N)N)C(N)=O)nn3)[C@H](O)[C@H](C)O2)Oc2ccc(cc2Cl)[C@H]1O [compound 16] | 37.3 ± 4.8 | –
